Substrate in the data set “purified protein”: C[C@H](N)C(=O)O
Description: purified protein. Conditions: 0.2 mM CRM M, 80 μM PLP, 4 μM CrmG, 200 mM Tris pH 7.5, 30 °C, covalent PLP-Ala external aldimine in crystal.

Substrate in data set [1]: NC(=O)CC[C@H](N)C(=O)O
Description: transamination kinetics with CRM M as acceptor; crystal structure. Format: biochemical, Actinoalloteichus sp. WH1-2216-6. The following applies: 0.2 mM CRM M, 80 μM PLP, 4 μM CrmG, 200 mM Tris pH 7.5, 30 °C, no external aldimine in crystal.

Substrate in data set [2]: N[C@@H](CCC(=O)O)C(=O)O
Put plainly: transamination kinetics with CRM M as acceptor; crystal structure of external aldimine. Format: biochemical, Actinoalloteichus sp. WH1-2216-6. The following applies: 0.2 mM CRM M, 80 μM PLP, 4 μM CrmG, 200 mM Tris pH 7.5, 30 °C, covalent PLP-Glu external aldimine in crystal.

B1: CrmG (Actinoalloteichus sp. WH1-2216-6) (protein)
chain: MTHPSGEPVYADAVLNGWLTSMGLGVEYVRAEGNTVYYLDDEGREVPVLDHACGFGSLIFGHNHPEIIAHAKAALDAGTVVHAQLSRQPRANQISRILNDIMRRETGRDDRYNAIFANSGAEANEICMKHAELERQERITALFAEIDAELDTAREALTTGTATLDTASLPLVGGGAGDVDGVIADIHRHNDERRAERPLFLTLDGSFHGKLVGSIQLTQNEPWRTPFTALSSPARFLPADEPELIGKIVEDERRSVLTLSLDKDTVRVVERDFPVVAAIFVEPVRGGSGMKTVTPELAEELHRLRDTLGCPLVVDEVQTGIGRTGAFFGSALLGIRGDYYTLAKAIGGGIVKNSVALIRQDRFLPAMEVIHSSTFAKDGLSASIALKVLEMVEADGGRVYQRVRERGQRLEAMLESVRADHSDVVSAVWGTGLMLALELRDQSNATSQAIREKAAHGFLGYVLAGFLLREHHIRVLPAGPRSGFLRFSPSLYITDEEIDRTETALRSLFTALRDQDGDRLVLS
notes: pET28a, N-terminal His-tag and 14 additional vector residues; expressed in E. coli BL21; dimer (114 kDa by DLS)
Take B1: the Michaelis constant (Km) in the data set “purified protein” came out at 405.10 µM; in data set [1], 182.70 µM; in data set [2], 80.02 µM.

What is called Km is the concentration of substrate that gives half-maximal velocity.

(Values after paper PMC7438487, “Structural studies reveal flexible roof of active site responsible for ω-transaminase CrmG overcoming by-product inhibition” (Communications Biology, 2020).)
